Reference: publication PMC3368264

Biological target: Leishmania major N5,N10-methylenetetrahydrofolate dehydrogenase/cyclohydrolase (Leishmania major (Friedlin strain))
Assay: SEC; Superdex 200 26/60 in buffer A (50 mM Tris-HCl, 250 mM NaCl, 20 mM imidazole, pH 7.5); main peak at approximately 65 kDa (subunit 31.9 kDa)

- stoichiometry N: 2
Substance: Leishmania major N5,N10-methylenetetrahydrofolate dehydrogenase/cyclohydrolase (enzyme)
